# Reference: patent publication US20030157132A1
# B1: single chain antibody scFv1-1 (scFv)
# scFv: QVQLVQSGAEVKKPGSSVKVSCKASGGTYIDQPIGWVRQAPGQGLEWMGGIIPLSGPPHYAQKFQGKVSITADESTSTAYLELTSLTSEDTAVYYCARVLRGYCRRGSCYDWLDPWGQGTLVTVSSGGGGSGGGGSGGGGSALDIQMTQSPSSLSASVGDRVTITCQASQDISNYLNWYQQKPGKAPKLLLYATSRLYSGVPSRFSGSGSGTDFTLSISSLQPEDFATYYCQQTKSFPLTFGGGTKVEIKRAAAEQKLISEEDLGSRSTHHAHHHAA
# Target: E2tag (tPA signal+E2(384-711)+tag; soluble E2/NS1 of HCV J1 clone with C-terminal E-tag) (hepatitis C virus (HCV J1 clone))
# Assay: SPR, BIACORE X; E2tag amine-coupled to CM5 chip, scFv1-1 injected in HBS buffer
binder,measurement,value
B1,Kd,2.2 nM
